Measured values reported in US9683053B2 (Glenmark Pharmaceuticals S.A., dated 2017).

What was measured:
Experiment in all cases: co-expression, protein-A, scanning densitometry of non-reduced SDS-PAGE
[1] = biological target: VH(anti-hCD19)-CH13-BT beta c-myc_VL(anti-hCD19)-CK3 molecule (half-molecule) (Artificial Sequence)
VL-BT beta chain = VL-BT beta chain (Artificial Sequence)
VL-BT beta F405A chain = VL-BT beta F405A chain (Artificial Sequence)
[2] = biological target: VH(anti-hCD19)-CH1 delta-BT beta c-myc_VL(anti-hCD19)-CK gamma molecule (half-molecule) (Artificial Sequence)
VH(anti-hCD19)-CH1 delta-BT beta c-myc_VL(anti-hCD19)-CK gamma molecule (half-molecule) (Artificial Sequence), sequence (heavy, as listed by the source, chain 1 of 2): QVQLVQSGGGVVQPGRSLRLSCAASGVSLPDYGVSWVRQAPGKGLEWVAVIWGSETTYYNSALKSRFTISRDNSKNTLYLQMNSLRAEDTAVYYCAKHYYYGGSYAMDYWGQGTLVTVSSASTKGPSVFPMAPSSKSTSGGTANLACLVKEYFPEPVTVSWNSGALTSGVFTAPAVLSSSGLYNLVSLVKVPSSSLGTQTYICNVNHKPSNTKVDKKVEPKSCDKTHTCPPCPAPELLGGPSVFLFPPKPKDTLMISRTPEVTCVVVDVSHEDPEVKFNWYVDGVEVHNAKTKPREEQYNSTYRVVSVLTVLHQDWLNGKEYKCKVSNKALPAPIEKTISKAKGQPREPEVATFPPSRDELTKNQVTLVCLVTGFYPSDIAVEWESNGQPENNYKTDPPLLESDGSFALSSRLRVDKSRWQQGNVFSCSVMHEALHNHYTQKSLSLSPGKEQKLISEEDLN
VH(anti-hCD19)-CH1 delta-BT beta c-myc_VL(anti-hCD19)-CK gamma molecule (half-molecule) (Artificial Sequence), sequence (light, as listed by the source, chain 2 of 2): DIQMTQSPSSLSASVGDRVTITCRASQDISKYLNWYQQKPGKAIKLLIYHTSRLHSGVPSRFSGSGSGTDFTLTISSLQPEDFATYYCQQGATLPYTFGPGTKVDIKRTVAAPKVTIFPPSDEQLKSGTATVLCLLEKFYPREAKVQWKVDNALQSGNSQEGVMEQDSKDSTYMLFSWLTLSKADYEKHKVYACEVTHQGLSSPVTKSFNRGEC

VH(anti-hCD19)-CH13-BT beta c-myc_VL(anti-hCD19)-CK3 molecule (half-molecule) (Artificial Sequence), sequence (heavy, as listed by the source, chain 1 of 2): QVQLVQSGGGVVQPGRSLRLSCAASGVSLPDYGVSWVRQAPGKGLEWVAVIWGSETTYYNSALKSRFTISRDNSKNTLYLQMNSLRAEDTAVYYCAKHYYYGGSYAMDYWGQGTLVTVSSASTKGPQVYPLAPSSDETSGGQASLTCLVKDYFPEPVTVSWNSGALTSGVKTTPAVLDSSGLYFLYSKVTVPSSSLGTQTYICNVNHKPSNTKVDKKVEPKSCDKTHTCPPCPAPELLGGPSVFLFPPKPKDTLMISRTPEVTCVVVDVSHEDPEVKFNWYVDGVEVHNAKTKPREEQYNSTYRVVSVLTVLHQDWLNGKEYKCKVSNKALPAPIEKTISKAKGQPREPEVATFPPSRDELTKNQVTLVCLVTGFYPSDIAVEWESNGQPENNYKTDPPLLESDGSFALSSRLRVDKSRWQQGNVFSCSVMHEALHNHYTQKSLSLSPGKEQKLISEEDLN
VH(anti-hCD19)-CH13-BT beta c-myc_VL(anti-hCD19)-CK3 molecule (half-molecule) (Artificial Sequence), sequence (light, as listed by the source, chain 2 of 2): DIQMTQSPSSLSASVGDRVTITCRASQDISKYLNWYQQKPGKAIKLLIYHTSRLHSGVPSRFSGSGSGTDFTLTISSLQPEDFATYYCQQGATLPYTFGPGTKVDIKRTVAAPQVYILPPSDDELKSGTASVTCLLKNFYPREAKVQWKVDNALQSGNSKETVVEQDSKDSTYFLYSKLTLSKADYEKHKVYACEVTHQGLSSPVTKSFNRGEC
VL-BT beta chain (Artificial Sequence), sequence (chain, as listed by the source): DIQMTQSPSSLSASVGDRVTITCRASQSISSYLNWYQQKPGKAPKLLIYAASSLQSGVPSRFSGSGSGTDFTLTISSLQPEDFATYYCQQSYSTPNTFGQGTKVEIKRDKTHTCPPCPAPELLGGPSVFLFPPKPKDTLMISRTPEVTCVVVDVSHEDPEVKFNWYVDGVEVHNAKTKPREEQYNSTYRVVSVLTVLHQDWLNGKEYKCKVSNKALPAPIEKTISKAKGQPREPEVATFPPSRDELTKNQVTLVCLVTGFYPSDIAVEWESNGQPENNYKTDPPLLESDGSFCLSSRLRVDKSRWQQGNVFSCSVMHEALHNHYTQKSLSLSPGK
VL-BT beta F405A chain (Artificial Sequence), sequence (chain, as listed by the source F405A F405A): as the sequence (chain, as listed by the source) above, with C293A counted along it

hetero-dimer percentage of the protein-A purified material [1]: ≥ 51.9%
hetero-dimer percentage of the protein-A purified material (VL-BT beta chain): ≥ 76.1%
hetero-dimer percentage of the protein-A purified material (VL-BT beta F405A chain): ≥ 80.7%
hetero-dimer percentage of the protein-A purified material [2]: ≥ 50%
B1: BT alpha His chain (other)
chain: DKTHTCPPCPAPELLGGPSVFLFPPKPKDTLMISRTPEVTCVVVDVSHEDPEVKFNWYVDGVEVHNAKTKPREEQYNSTYRVVSVLTVLHQDWLNGKEYKCKVSNKALPAPIEKTISKAKGQPREPQVYTLPPSRDELTKNQVKLVCLVTGFYPSDIAVEWESNGQPENNYYTTPPVLDSDGSFSLVSWLNVDKSRWQQGNVFSCSVMHEALHNHYTQKSLSLSPGKHHHHHH
